Reference: PMC10892425

What was measured:
[1] = tested on: VV-GMCSF-Lact intact vaccinia virus particles (surface protein target not identified) (Vaccinia virus, LIVP strain (recombinant VV-GMCSF-Lact)); test: MST
[2] = tested on: VV-GMCSF-Lact intact vaccinia virus particles (surface protein target not identified) (Vaccinia virus, LIVP strain (recombinant VV-GMCSF-Lact)); test: flow cytometry

“GTAACCAGCCATCACCCTATTATCTCATTATCTCGTTTTCCCTATGCGGCATAGG [NV14t_56 (8NV37_14 variant 2_12-67)]” was tested, and the K half [1] was 1.49e+09 PFU/mL and the Kd [2] was 353 nM.
